Test results published in PMC6983858.

Key:
[1] = biological target: full-length human neurofibromin (His6-tev-NF1, 2–2818) (human) (UniProt P21359); assay: SAXS + SANS; full-length neurofibromin in solution, SAXS at 0.5 and 1.0 mg/ml, SANS at 1 mg/ml, 20 °C; molar mass from scattering
[2] = biological target: full-length human neurofibromin (His6-tev-NF1, 2–2818) (human) (UniProt P21359); assay: SEC-MALS; single purified proteins; Superose-6 Increase or Superdex S-200 10/300 GL, Wyatt Heleos and Optilab T-Rex; BSA as standard
[3] = biological target: full-length human neurofibromin (His6-tev-NF1, 2–2818) (human) (UniProt P21359); assay: AUC; sedimentation velocity and equilibrium of full-length neurofibromin, 1.2 μM to 25 nM, 20 °C, 20 mM HEPES pH 7.4, 300 mM NaCl, 1 mM TCEP; dimer to monomers

- stoichiometry N [1]: 2
- stoichiometry N [2]: 2
- Kd [3]: < 1 nM
Substance: full-length human neurofibromin (His6-tev-NF1, 2–2818), P21359-2 2-2818
